This note sets out measurements from PMC3021526, “Rise and Fall of an Anti-MUC1 Specific Antibody” (PLoS ONE, 2011).

In assay [1] the target is synthetic MUC1 glycopeptide APDT(GalNAc)… (human). The experiment in a line: SPR; IIB6 on the MUC1 glycopeptide; data not shown. In general terms: Surface plasmon resonance follows binding to a sensor surface in real time, without labels.
The target of assay [2] is human anti-MUC1 scFv IIB6 (human). Kind of assay: SEC; 80 µg IMAC purified scFv on Superdex200 10/300, PBS, 0.5 mL/min; monomer to dimer. (Size exclusion chromatography separates by hydrodynamic size, large species first.)
Assay [3] deals with T1, MUC1 15 aa peptide with cysteine (…-C) (human).
T1 sequence (peptide): APDTRPAPGSTAPPAC
Kind of assay: SPR; Biacore 2000; about 50 RU MUC1 15 aa peptide with cysteine coupled on a CM5 chip (NHS/EDC, PDEA); serial dilutions of scFv (0-400 nM) at 50 µL/min; 1:1 Langmuir separate fitting; IIB6 by steady-state model.

The target in assay [4] is T2, MUC1 15 aa peptide with cysteine (APDTRPAPGSTAPPA-C) (Homo sapiens (synthetic peptide)).
T2 construct: 15 residues of the tandem repeat (VNTR) of human MUC1; added C-terminal cysteine, used for coupling to the chip; also called MUC1 peptide; MUC1 peptide antigen
T2 chain: APDTRPAPGSTAPPAC
The assay is described as above. Conditions: both partners purified.

Assay [5] has as its target affinity matured anti-MUC1 scFv HT220-M-G8 (human). Kind of assay: SEC; 80 µg IMAC purified scFv on Superdex200 10/300, PBS, 0.5 mL/min; monomer to dimer.
Assay [6] deals with MUC1 on MCF-7 cells (human (endogenous in MCF-7)) (UniProt P15941). The experiment in a line: flow cytometry on cells; internalisation assay: MCF-7 cells with 10 µg/ml antibody on ice 1 h, washed, 1 h at 4°C; surface antibody detected by PE-conjugated mouse anti-human IgG.
Chain of MUC1 on MCF-7 cells (human (endogenous in MCF-7)) (P15941 24-1255): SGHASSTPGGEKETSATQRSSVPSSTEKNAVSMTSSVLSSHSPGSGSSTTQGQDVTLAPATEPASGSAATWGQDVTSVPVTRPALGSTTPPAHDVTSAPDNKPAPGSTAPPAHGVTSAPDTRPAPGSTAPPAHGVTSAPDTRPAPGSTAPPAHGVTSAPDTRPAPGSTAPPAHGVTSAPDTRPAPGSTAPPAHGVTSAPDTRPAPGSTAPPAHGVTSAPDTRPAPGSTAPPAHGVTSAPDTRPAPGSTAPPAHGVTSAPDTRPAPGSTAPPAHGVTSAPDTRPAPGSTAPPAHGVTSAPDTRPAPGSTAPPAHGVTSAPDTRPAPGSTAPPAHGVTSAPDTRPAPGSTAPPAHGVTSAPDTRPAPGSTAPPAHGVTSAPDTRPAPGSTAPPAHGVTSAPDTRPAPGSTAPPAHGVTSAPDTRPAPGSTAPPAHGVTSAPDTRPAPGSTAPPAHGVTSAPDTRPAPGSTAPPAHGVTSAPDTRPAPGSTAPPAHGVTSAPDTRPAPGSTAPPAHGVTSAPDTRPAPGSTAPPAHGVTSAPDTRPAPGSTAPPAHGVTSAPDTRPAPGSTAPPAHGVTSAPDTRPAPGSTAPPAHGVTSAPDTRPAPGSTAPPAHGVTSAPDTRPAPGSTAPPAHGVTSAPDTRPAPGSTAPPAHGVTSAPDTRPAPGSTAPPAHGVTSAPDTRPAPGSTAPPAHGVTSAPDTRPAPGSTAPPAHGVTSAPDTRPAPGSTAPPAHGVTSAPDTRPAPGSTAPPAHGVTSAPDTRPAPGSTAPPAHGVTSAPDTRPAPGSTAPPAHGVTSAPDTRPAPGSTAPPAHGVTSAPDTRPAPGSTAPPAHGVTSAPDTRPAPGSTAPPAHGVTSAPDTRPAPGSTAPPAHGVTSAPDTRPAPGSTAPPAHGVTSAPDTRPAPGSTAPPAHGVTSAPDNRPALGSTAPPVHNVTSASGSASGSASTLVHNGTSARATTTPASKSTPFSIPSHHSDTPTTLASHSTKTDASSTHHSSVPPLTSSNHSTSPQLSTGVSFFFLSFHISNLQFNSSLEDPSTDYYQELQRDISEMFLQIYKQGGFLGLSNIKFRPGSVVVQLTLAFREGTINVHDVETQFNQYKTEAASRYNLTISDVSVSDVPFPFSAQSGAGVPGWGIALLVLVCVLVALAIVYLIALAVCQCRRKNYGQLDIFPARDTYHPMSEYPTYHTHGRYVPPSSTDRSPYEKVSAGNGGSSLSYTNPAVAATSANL
Assay [7] deals with T3, MUC1 32 aa peptide with a C-terminal cysteine (APDTRPAPGSTAPPAHGVTSAPDTRPAPGSTA-C) (Homo sapiens (synthetic peptide)).
T3 construct: 32 residues of the tandem repeats (VNTR) of human MUC1; added C-terminal cysteine; also called MUC1 peptide antigen (32mer cys); MUC1 32mer Cys peptide
T3 chain: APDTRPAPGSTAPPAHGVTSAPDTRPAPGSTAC
The experiment in a line: ELISA; MUC1 32 aa peptide with C-terminal cysteine coated in PBS over night at 4°C; dilution series of purified scFv, scFv-Fc or IgG in 2% M-PBST, 1.5 h at RT; scFv detected by 9E10 (c-myc), scFv-Fc and IgG by anti-human Fc HRP. The following applies: both partners purified. Background: ELISA stands for enzyme-linked immunosorbent assay.

Residue numbers refer to the chain shown, from its start. A value given as a limit tells only on which side of the number the result lay.

B1: human anti-MUC1 scFv IIB6 (scFv, V domains shown)
VH: QMQLVQSGAEVKKPGASVKVSCKASGYTFTGHYMHWVRQAPGQGLEWMGWIDPVTGGTKYAQNFQGWVTMTRDTSIRTAYMELSRLRSDDTAMYYCAREVTGDRGQFDKWGQGTLVTVAS
VL: QSVLTQPPSVSVAPGKTARITCGGNNIGSKSVHWYQQKPGQAPVLVIYYDSDRPSGIPERFSGSNSGNTATLTISRVEAGDEADYYCQVWDSSSDWVFGGGTKLTVL
The Kd is the equilibrium constant for the complex coming apart. A low value points to a tighter complex. One may read the stoichiometry N as the number of molecules, sites or subunits per partner or assembly. In assay [1], B1 gave a Kd of 230 nM. In assay [2], this molecule displayed a percent of the scFv dimerised of 50% and a stoichiometry N of 2. This molecule also had a Kd in assay [3] of 310 nM.

B2: affinity matured anti-MUC1 scFv HT186-B7 (scFv, V domains shown)
VH: B1 VH
VL: B1 VL with V44A, D50G, D52Y, S66Y, S75R
notes: From IIB6 by error-prone PCR (library A), off-rate panning; source: E. coli, IMAC purified; also culture supernatant from microtitre plates; not shown: c-myc, C-terminal, kept
A word on the koff: it is a measure of how fast the partners let go of each other. Low values mean slow dissociation, high ones fast dissociation. The term kon denotes the rate constant with which the complex forms. A low value points to slower complex formation. On to B2, for which, in assay [4], binding was put at a Kd of 1.3 nM, the koff is 2.1e-05 s⁻¹ and the kon was 35000 M⁻¹ s⁻¹.

B3: affinity matured anti-MUC1 scFv HT200-3A-C1 (scFv, V domains shown)
VH: B1 VH
VL: B1 VL with V12M, K16E, Y49N, N68K, S94I
notes: one potential N-glycosylation site in CDR2; From IIB6 by nested error-prone PCR (library B), panning in solution; source: E. coli, IMAC purified; also culture supernatant from microtitre plates; not shown: c-myc, C-terminal, kept
Consider B3, for which, in assay [4], binding was put at a Kd of 2.1 nM, the koff was found to be 0.0001 s⁻¹ and the kon came to 49000 M⁻¹ s⁻¹.

B4: affinity matured anti-MUC1 scFv HT186-D11 (scFv, V domains shown)
VH: B1 VH with G8E, V11L, T28S, M81L
VL: B1 VL with V44A, D50G, D52N
notes: as for B2
In assay [4], B4 returned a Kd of 0.57 nM, a koff of 7.2e-05 s⁻¹ and a kon of 38000 M⁻¹ s⁻¹.

B5: affinity matured anti-MUC1 scFv HT220-M-G8 (scFv, V domains shown)
VH: B1 VH with K12M, T28S, Q39H, G57S, R77S
VL: B1 VL with D50G, S66T, T69M
notes: source: E. coli, IMAC purified; also culture supernatant from microtitre plates; not shown: c-myc, C-terminal, kept
As to B5, in assay [5], the percent of the scFv dimerised was determined as 50% and the stoichiometry N is 2. Moreover, in assay [4], the Kd stood at 4.4 nM, the koff is 0.00022 s⁻¹ and the kon was determined as 50000 M⁻¹ s⁻¹.

B6: affinity matured anti-MUC1 scFv HT220-M-D1 (scFv, V domains shown)
VH: B1 VH with Q3L, V11A, S88P
VL: B1 VL with A13V, T21I, Y49N, D50N, T69M, A83S, K103R, V106I
notes: one potential N-glycosylation site in CDR2; source: E. coli, IMAC purified; also culture supernatant from microtitre plates; not shown: c-myc, C-terminal, kept
In assay [4], B6 showed a Kd of 3.7 nM, a koff of 0.00011 s⁻¹ and a kon of 29000 M⁻¹ s⁻¹.

B7: HT186-D11 human IgG (antibody, V domains shown)
VH: B1 VH with G8E, V11L, T28S, M81L
VL: B1 VL with V44A, D50G, D52N
In assay [6], B7 came in with a percentage of MUC1 positive cells (4°C) of 68%.

B8: affinity matured anti-MUC1 scFv HT186-G2 (scFv, V domains shown)
VH: B1 VH with Q1R, V20L, T30A, Q43R
VL: B1 VL with D50G, P54S
notes: as for B2
In assay [4], B8 showed a Kd of no more than 1 nM, a koff of no more than 1e-05 s⁻¹ and a kon of 72000 M⁻¹ s⁻¹.

B9: HT186-G2 human IgG (antibody, V domains shown)
VH: B1 VH with Q1R, V20L, T30A, Q43R
VL: B1 VL with D50G, P54S
notes: as the VH of m4; human IgG heavy-chain constant region from the expression vector CHK622-08; as the VL of m4; C lambda derived from the vector CHL558-0; VH and VL ordered as synthetic genes, codon optimised for rat; also called HT186-G2 IgG
Regarding B9, the “fold decrease of affinity against the scFv-Fc format” value in assay [7] was roughly 10 fold.
